Literature values, collected in paper PMC2742733.
pKd: −log10 of the molar value.

Biological target: TEM-8 (Homo sapiens) (UniProt Q9H6X2)

With “Protective antigen (PA) (from UniProt P13423)” as the substance, how does the pKd read?
The pKd was 6.89.
